# Source: patent US20230349919A1 (Regeneron, published 2023)
# T1: Der f 1 (house dust mite, UniProt P16311 99-321)
# T1 construct: Also used oligonucleotide-barcoded for cell staining
# T1 sequence (looked up): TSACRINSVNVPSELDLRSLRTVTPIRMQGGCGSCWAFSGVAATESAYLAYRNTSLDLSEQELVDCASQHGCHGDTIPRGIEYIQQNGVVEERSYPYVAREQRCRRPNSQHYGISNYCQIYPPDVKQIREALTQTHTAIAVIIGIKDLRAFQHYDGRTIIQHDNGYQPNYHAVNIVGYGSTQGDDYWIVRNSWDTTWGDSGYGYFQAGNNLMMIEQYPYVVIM
# T2: Der p 1 (house dust mite, UniProt P08176 99-320)
# T2 construct: Also used oligonucleotide-barcoded for cell staining; also called natural Der p 1
# T2 sequence (looked up): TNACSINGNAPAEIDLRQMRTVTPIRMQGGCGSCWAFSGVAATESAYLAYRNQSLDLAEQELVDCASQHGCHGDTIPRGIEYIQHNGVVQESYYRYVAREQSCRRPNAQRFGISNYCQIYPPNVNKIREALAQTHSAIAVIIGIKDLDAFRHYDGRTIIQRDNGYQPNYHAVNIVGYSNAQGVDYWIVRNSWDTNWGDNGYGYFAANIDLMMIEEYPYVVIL
# T3: Der p 2 (house dust mite, UniProt P49278 18-146)
# T3 construct: Also used oligonucleotide-barcoded for cell staining
# T3 sequence (looked up): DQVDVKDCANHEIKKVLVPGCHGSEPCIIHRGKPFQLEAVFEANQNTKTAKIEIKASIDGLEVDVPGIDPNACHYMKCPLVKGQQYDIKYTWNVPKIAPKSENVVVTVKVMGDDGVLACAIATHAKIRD
# B1: IgE mAb 12_2 (antibody, V domains shown)
# VH: QAYLQQSGAELVRPGASVKMSCKASGYTFISYNMHWVKQTRRQGLEWIGAIYPGNGDTSYNQKFKGKATLTVDKSSSTAYMQLSSLTSEDSAVYFCARWDYYGSSYGAYWGQGTLVTVSA
# VL: DIQMTQSPASLSVSVGETVTITCRASENIYSNLAWYQQKQGKSPQLLVYAATNLADGVPSRFSGSGSGTQYSLKINSLQSEDFGSYYCQHFWGTPWTFGGGTKLEIK
# Tests used:
# Der f 1 [1] = target: T1, Der f 1; experiment: ELISA, coated Der f1
# Protocol: (§1) After selecting allergen-specific antibodies, relative binding to Der p 1, Der p 2, and Der f 1 were quantified by ELISA. […] Specifically, binding microtiter plates were coated with 100 μl of 2 μg/mL of natural Der p 1, Der p 2, Der f 1, and Ole e 1 in PBS overnight at 4′C. IgE antibodies were prepared at a concentration of 1 μg/mL and serially diluted three-fold in PBS with 0.5% w/v BSA. After washing with 0.05% v/v Tween® 20 in PBS and blocking in PBS with 0.5% w/v BSA, 100 μl of the diluted IgE antibodies were transferred to the plates and incubated for one hour at ambient temperature. Subsequently, 100 μL of anti-mouse IgE antibody conjugated to horse-radish peroxidase (HRP) diluted at 1:5000 was added. The plates were then incubated for one hour at ambient temperature, and washed in 0.05% v/v/Tween® 20 in PBS. Subsequently, the HRP substrate 3,3′,5,5′-tetramethylbenzidine (TMB) was added. The reaction was stopped (with 100 μL of sulfuric acid 2.0 N) and optical density values determined using a plate reader at 450 nm.
# Der p 1 = target: T2, Der p 1; experiment: ELISA, coated Der p1
# Protocol: as §1
# Der p 2 [2] = target: T3, Der p 2; experiment: ELISA, coated Der p2
# Protocol: as §1
# Der p 2 [3] = target: T3, Der p 2; experiment: centered log-ratio of barcode count
# From the text: (§2) The barcoded antigen library was mapped by the CellRanger software to a custom short-read reference that contained the DNA tag sequences of the four barcoded antigens, namely, Der p 1, Der p 2, Der f 1 and Ole e 1. These tag sequences were quantified across all cells and were normalized by taking the centered log-ratio (CLR) per barcoded antigen across each sample capture. In addition, background antigen signal for each barcoded antigen was removed by DSB (Denoised and Scaled by Background). Both the CLR and the DSB normalized values were used to quantify the target antigen signals, namely, those for Der p 1, Der p 2 and Der f 1, against the control signal, namely, that for Ole e 1.
# Der f 1 [4] = target: T1, Der f 1; experiment: centered log-ratio of barcode count
# From the text: as §2
# Der p 2 [5] = target: T3, Der p 2; experiment: barcoded-antigen count on source cell
# Der f 1 [6] = target: T1, Der f 1; experiment: barcoded-antigen count on source cell
# Der p 2 [7] = target: T3, Der p 2; experiment: barcode rank score against control Ole e 1
# Der f 1 [8] = target: T1, Der f 1; experiment: barcode rank score against control Ole e 1
binder,measurement,setting,value
B1,EC50 (read off the curve),Der f 1 [1],~100 pM
same,EC50 (read off the curve),Der p 1,~100 pM
same,EC50 (read off the curve),Der p 2 [2],~100 pM
same,Derp2_ab_clr,Der p 2 [3],0.00487
same,Derf1_ab_clr,Der f 1 [4],1.74
same,Derp2_ab_raw,Der p 2 [5],11 counts
same,Derf1_ab_raw,Der f 1 [6],57 counts
same,Derp2_ab_rank,Der p 2 [7],0.453
same,Derf1_ab_rank,Der f 1 [8],0.973
